Ends that are not written are not given here. fluorescein = fluorescein label on the N-terminus of the peptide
Assays:
Assay in all cases: fluorescence anisotropy
[1] = molecular target: T1, Src-optimal substrate peptide Rs1 (synthetic construct)
T1 chain: fluorescein-AEEEIYGEFAKKK

[2] = molecular target: T2, Src-optimal substrate peptide Rs1 (synthetic construct)
T2 chain: fluorescein-AEEEIYGEFAKKK

[3] = molecular target: T3, Src-optimal substrate peptide Rs1 (synthetic construct)
T3 chain: fluorescein-AEEEIYGEFAKKK

- Kd [1]: 16 µM
- Kd [2]: 17 µM
- Kd [3]: 37 µM
B1: Src kinase domain 251-533 (protein)
chain: QTQGLAKDAWEIPRESLRLEVKLGQGCFGEVWMGTWNGTTRVAIKTLKPGTMSPEAFLQEAQVMKKLRHEKLVQLYAVVSEEPIYIVTEYMSKGSLLDFLKGEMGKYLRLPQLVDMAAQIASGMAYVERMNYVHRDLRAANILVGENLVCKVADFGLARLIEDNEYTARQGAKFPIKWTAPEAALYGRFTIKSDVWSFGILLTELTTKGRVPYPGMVNREVLDQVERGYRMPCPPECPESLHDLMCQCWRKDPEERPTFEYLQAFLEDYFTSTEPQYQPGENL

From publication PMC4300553 (2015)
